These results are taken from patent US20210355194A1 (TWIST BIOSCIENCE, published 2021).

Assay [1] deals with T1, SARS-CoV-2 spike on live SARS-CoV-2 virus (SARS-CoV-2, UniProt P0DTC2 14-1273). Kind of assay: cell-based or functional assay.
Assay [2] concerns the target SARS-CoV-2 spike on VSV-pseudotype SARS-CoV-2 (SARS-CoV-2, UniProt P0DTC2 14-1273). Put plainly: cell-based or functional assay.
Assay [3] addresses T1, SARS-CoV-2 spike on live SARS-CoV-2 …. Put plainly: cell-based or functional assay. This is another data set of the same source.
Assay [4] concerns the target T2, Acro COVID S1 (S1N-C82E8) (SARS-CoV-2, UniProt P0DTC2 16-685).
T2 construct: domain: subunit 1 (S1)
Put plainly: phage ELISA.

For assay [5], the target named is T2, Acro COVID S1 (S1N-C82E8). Kind of assay: phage ELISA. This is another data set of the same source. Background: ELISA stands for enzyme-linked immunosorbent assay.
The target in assay [6] is T3, SARS-CoV-2 S protein trimer (SARS-CoV-2, UniProt P0DTC2 14-1208). Put plainly: Carterra SPR, DB format, S trimer.
In assay [7] the target is T3, SARS-CoV-2 S protein trimer. Kind of assay: Carterra SPR, Fc capture, S trimer.
For assay [8] the target is unchanged. Put plainly: Carterra SPR, direct capture (DC), S trimer.
In assay [9] the target is Acro COVID S1 (S1N-C82E8) (SARS-CoV-2, UniProt P0DTC2 16-685). Kind of assay: phage ELISA.

Like-named read-outs stand apart in the source and are kept apart here.

B1: variant 2-2 (antibody, V domains shown)
VH: EVQLLESGGGLVQPGGSLRLSCAASGFTFSRHAMNWVRQAPGKGLEWVSGISGSGDETYYADSVKGRFTISRDNSKNTLYLQMNSLRAEDTAVYYCARDLPASYYDSSGYYWHNGMDVWGQGTLVTVSS
VL: DIQMTQSPSSLSASVGDRVTITCRASQTINTYLNWYQQKPGKAPKLLIYSASTLQSGVPSRFSGSGSGTDFTLTISSLQPEDFATYYCQQSYSTFTFGQGTKVEIK
With B1, in assay [1], the EC50 (in general, the concentration needed to bring the measured effect to its halfway point) was determined as 67.6 µg/mL. The “NC50” value in [2] stood at 67.6 µg/mL. Moreover, the 80% effect level in assay [3] (EC80) was put at 355 µg/mL.

B2: SARS-CoV-2 S1 variant 2-2 (antibody, V domains shown)
VH: EVQLLESGGGLVQPGGSLRLSCAASGFTFSRHAMNWVRQAPGKGLEWVSGISGSGDETYYADSVKGRFTISRDNSKNTLYLQMNSLRAEDTAVYYCARDLPASYYDSSGYYWHNGMDVWGQGTLVTVSS
VL: DIQMTQSPSSLSASVGDRVTITCRASQTINTYLNWYQQKPGKAPKLLIYSASTLQSGVPSRFSGSGSGTDFTLTISSLQPEDFATYYCQQSYSTFTFGQGTKVEIK
With B2, the “ELISA fold over background” value in assay [4] and in [5] was 39.4 fold throughout.

B3: 2-2 (antibody, V domains shown)
VH: EVQLLESGGGLVQPGGSLRLSCAASGFTFSRHAMNWVRQAPGKGLEWVSGISGSGDETYYADSVKGRFTISRDNSKNTLYLQMNSLRAEDTAVYYCARDLPASYYDSSGYYWHNGMDVWGQGTLVTVSS
VL: DIQMTQSPSSLSASVGDRVTITCRASQTINTYLNWYQQKPGKAPKLLIYSASTLQSGVPSRFSGSGSGTDFTLTISSLQPEDFATYYCQQSYSTFTFGQGTKVEIK
notes: also called variant 2-2
Regarding B3, the equilibrium dissociation constant (Kd) – broadly, the equilibrium constant for the complex coming apart – amounted to 1.2 nM in assay [6], 0.8 nM in assay [7] and 1.4 nM in assay [8].

B4: 2-9 (antibody, V domains shown)
VH: EVQLLESGGGLVQPGGSLRLSCAASGFTFPRYAMSWVRQAPGKGLEWVSTISGSGSTTYYADSVKGRFTISRDNSKNTLYLQMNSLRAEDTAVYYCARLIDAFDIWGQGTLVTVSS
VL: DIQMTQSPSSLSASVGDRVTITCRASQRIGTYLNWYQQKPGKAPKLLIYAASNLEGGVPSRFSGSGSGTDFTLTISSLQPEDFATYYCQQNYSTTWTFGQGTKVEIK
notes: also called variant 2-9
The molecule B4 gave a Kd in assay [7] of 23600 nM.

B5: variant 2-9 (antibody, V domains shown)
VH: EVQLLESGGGLVQPGGSLRLSCAASGFTFPRYAMSWVRQAPGKGLEWVSTISGSGSTTYYADSVKGRFTISRDNSKNTLYLQMNSLRAEDTAVYYCARLIDAFDIWGQGTLVTVSS
VL: DIQMTQSPSSLSASVGDRVTITCRASQRIGTYLNWYQQKPGKAPKLLIYAASNLEGGVPSRFSGSGSGTDFTLTISSLQPEDFATYYCQQNYSTTWTFGQGTKVEIK
Regarding B5, in [9], the “specificity ELISA, fold over background” value was 24.1 fold over background.

B6: variant 2-5 (antibody, V domains shown)
VH: EVQLLESGGGLVQPGGSLRLSCAASGFTFSDFAMAWVRQAPGKGLEWVSAISGSGDITYYADSVKGRFTISRDNSKNTLYLQMNSLRAEDTAVYYCAREADGLHSPWHFDLWGQGTLVTVSS
VL: DIQMTQSPSSLSASVGDRVTITCRASQSIHTYLNWYQQKPGKAPKLLIYAASALASGVPSRFSGSGSGTDFTLTISSLQPEDFATYYCQQSYSAPPYTFGQGTKVEIK
Turning to B6, the concentration for a half-maximal effect (EC50) in assay [1] worked out at 18.3 µg/mL. Besides, in assay [2], the “NC50” value turned out to be 18.3 µg/mL. Besides, it took 106 µg/mL to reach the 80% level in [3] (EC80).

B7: 2-8 (antibody, V domains shown)
VH: EVQLLESGGGLVQPGGSLRLSCAASGFTFSDFAMAWVRQAPGKGLEWVSAISGSGDITYYADSVKGRFTISRDNSKNTLYLQMNSLRAEDTAVYYCAREADGLHSPWHFDLWGQGTLVTVSS
VL: DIQMTQSPSSLSASVGDRVTITCRASQSIDTYLNWYQQKPGKAPKLLIYAASALASGVPSRFSGSGSGTDFTLTISSLQPEDFATYYCQQSYSAPPYTFGQGTKVEIK
notes: also called variant 2-8
For the molecule B7, the results for the Kd in assay [6] and in assay [8] were 115 nM and 47.4 nM, respectively.

B8: 2-4 (antibody, V domains shown)
VH: EVQLLESGGGLVQPGGSLRLSCAASGFTFSDFAMAWVRQAPGKGLEWVSAISGSGDITYYADSVKGRFTISRDNSKNTLYLQMNSLRAEDTAVYYCAREADGLHSPWHFDLWGQGTLVTVSS
VL: DIQMTQSPSSLSASVGDRVTITCRASQSIDTYLNWYQQKPGKAPKLLIYAASALASGVPSRFSGSGSGTDFTLTISSLQPEDFATYYCQQSYSAPPYTFGQGTKVEIK
notes: also called variant 2-4
For B8, binding in assay [6] was characterised by a dissociation constant (Kd) of 4340 nM. This counts as single-digit micromolar.

B9: 2-12 (antibody, V domains shown)
VH: EVQLLESGGGLVQPGGSLRLSCAASGFTFSDYPMNWVRQAPGKGLEWVSTISGSGGITFYADSVKGRFTISRDNSKNTLYLQMNSLRAEDTAVYYCVRHDEYSFDYWGQGTLVTVSS
VL: DIQMTQSPSSLSASVGDRVTITCRASQSIDNYLNWYQQKPGKAPKLLIYGVSALQSGVPSRFSGSGSGTDFTLTISSLQPEDFATYYCQQSHSAPPYFFGQGTKVEIK
notes: also called variant 2-12
In the case of B9, the values for the Kd in assay [6], in assay [7] and in [8] were 6.4 nM, 3.2 nM and 63.8 nM, respectively.

B10: SARS-CoV-2 S1 variant 2-5 (antibody, V domains shown)
VH: EVQLLESGGGLVQPGGSLRLSCAASGFTFSDFAMAWVRQAPGKGLEWVSAISGSGDITYYADSVKGRFTISRDNSKNTLYLQMNSLRAEDTAVYYCAREADGLHSPWHFDLWGQGTLVTVSS
VL: DIQMTQSPSSLSASVGDRVTITCRASQSIHTYLNWYQQKPGKAPKLLIYAASALASGVPSRFSGSGSGTDFTLTISSLQPEDFATYYCQQSYSAPPYTFGQGTKVEIK
B10: the “ELISA fold over background” value in assay [4] and in assay [5] was 38.3 fold in each case.

B11: variant 2-8 (antibody, V domains shown)
VH: EVQLLESGGGLVQPGGSLRLSCAASGFTFSDFAMAWVRQAPGKGLEWVSAISGSGDITYYADSVKGRFTISRDNSKNTLYLQMNSLRAEDTAVYYCAREADGLHSPWHFDLWGQGTLVTVSS
VL: DIQMTQSPSSLSASVGDRVTITCRASQSIDTYLNWYQQKPGKAPKLLIYAASALASGVPSRFSGSGSGTDFTLTISSLQPEDFATYYCQQSYSAPPYTFGQGTKVEIK
Consider B11, for which the “specificity ELISA, fold over background” value in [9] is 35.9 fold over background.

B12: 2-5 (antibody, V domains shown)
VH: EVQLLESGGGLVQPGGSLRLSCAASGFTFSDFAMAWVRQAPGKGLEWVSAISGSGDITYYADSVKGRFTISRDNSKNTLYLQMNSLRAEDTAVYYCAREADGLHSPWHFDLWGQGTLVTVSS
VL: DIQMTQSPSSLSASVGDRVTITCRASQSIHTYLNWYQQKPGKAPKLLIYAASALASGVPSRFSGSGSGTDFTLTISSLQPEDFATYYCQQSYSAPPYTFGQGTKVEIK
notes: also called variant 2-5
For B12, the figures for the Kd in assay [7] and in assay [8] were 90.2 nM and 17.3 nM, respectively.
